Measured values: doi:10.1101/2025.02.16.638521

Molecular target: biotinylated Sos1^PRS peptide
Test: BLI

Kd: 14.7 µM
Substance: GST-tagged Grb2^SH3C (C-terminal SH3 domain of Grb2) (domain or fragment)
